Assay results taken from paper PMC2275666 (The EMBO Journal, 2008).
Numbering of substitutions follows the chain as printed.

How the values were obtained:
6H–hTFIIEα S365E = target: T1, 6H–hTFIIEα S365E (human, UniProt P29083 1-439, S365E); test: pull-down
T1 sequence: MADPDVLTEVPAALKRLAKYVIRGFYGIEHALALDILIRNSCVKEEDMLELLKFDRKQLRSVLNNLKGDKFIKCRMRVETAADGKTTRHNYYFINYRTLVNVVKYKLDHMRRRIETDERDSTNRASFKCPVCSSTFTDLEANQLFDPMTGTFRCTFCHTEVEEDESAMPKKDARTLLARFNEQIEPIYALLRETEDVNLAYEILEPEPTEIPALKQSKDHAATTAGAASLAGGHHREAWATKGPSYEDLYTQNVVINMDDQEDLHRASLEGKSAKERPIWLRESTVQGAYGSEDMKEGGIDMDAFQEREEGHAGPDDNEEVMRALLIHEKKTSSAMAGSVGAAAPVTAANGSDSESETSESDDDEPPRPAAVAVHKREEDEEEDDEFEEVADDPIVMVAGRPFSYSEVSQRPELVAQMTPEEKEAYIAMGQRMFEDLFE

6H–hTFIIEα E383A = target: T2, 6H–hTFIIEα E383A (human, UniProt P29083 1-439, E383A); test: pull-down
T2 sequence: T1 sequence with E365S, E383A

binding result (6H–hTFIIEα S365E): binds | binding result (6H–hTFIIEα E383A): binds
B1: GST-tagged hTFIIEβ (natural protein)
chain: MDPSLLRERELFKKRALSTPVVEKRSASSESSSSSSKKKKTKVEHGGSSGSKQNSDHSNGSFNLKALSGSSGYKFGVLAKIVNYMKTRHQRGDTHPLTLDEILDETQHLDIGLKQKQWLMTEALVNNPKIEVIDGKYAFKPKYNVRDKKALLRLLDQHDQRGLGGILLEDIEEALPNSQKAVKALGDQILFVNRPDKKKILFFNDKSCQFSVDEEFQKLWRSVTVDSMDEEKIEEYLKRQGISSMQESGPKKVAPIQRRKKPASQKKRRFKTHNEHLAGVLKDYSDITSSK
